For assay [1], the target named is T1, Nicotinic acetylcholine Receptor alpha-4 beta-2 (nAChR(a4/b2)) (Homo sapiens, UniProt P17787+P43681).
T1 construct: host or cells: unnamed DiscoverX cell line
As to the kind of experiment: cell-based. Particulars: Blocker; Ion channel; read-out: RC50 (the source's name).

Assay [2] concerns the target Gamma-aminobutyric acid Receptor A (GABAA) (Homo sapiens, UniProt P14867+P18507+P47870). As to the kind of experiment: SAFETYscan Ion channel assay. It is filed as cell-based. Conditions: Blocker, read-out: RC50 (the source's name).
For assay [3], the system named is PC12 dopaminergic cell cultures. As to the kind of experiment: PC12 neurotropic (neurite outgrowth) assay. Type of assay: cell-based, rat. Conditions: for neurite outgrowth, Df value: NGF alone 50 ng/mL.
In assay [4] the test system is PGE2 production in PC12 cells. Description: PGE2 production measured by ELISA. Conditions: 50 ng/mL NGF; 24 h.
In assay [5] the test system is adult rat spinal cord primary cultures. Description: Spinal cord neurons neurite outgrowth assay. Type of assay: cell-based. Conditions: NGF 50 ng/mL. The method, then:
To study the effect of HU-MCA-13 on adult rat spinal cord primary cultures in vitro, we developed a purification procedure that yields enriched different types of spinal cord neuronal cultures. This neurotropic assay was performed using vehicle 1% DMSO in DMEM as control and 10 μM HU-MCA-13. The results in Figure 1 bottom row and Figure 3D clearly indicate that in control there was very poor spontaneous neurite outgrowth of a total length of about 180 μm and NGF induced neurite outgrowth to a total length of about 800 μm. Similarly, HU-MCA-13 induced a neurite outgrowth of 600 μm. Figure 2B indicates cytoskeletal-tubulin protein expression in the cultured neurons. These findings further extend the neurotropic effect of HU-MCA-13 to spinal cord neurons, in addition to DRGs and PC12 cells.
Spinal cords were isolated from adult rats (4–6 months old), and the meninges were removed from the spinal cord. The spinal cord was then cut into small pieces and collected in cold Hibernate A (Brainbits, Springfield, IL, USA), glutamine (0.5 mM), and B27 (Invitrogen, Carlsbad, CA). […] Neurite outgrowth was measured and presented as mean length of a neurite (microns). To measure neuronal survival, 450 cells were counted in 10 randomly chosen microscope fields of a known area in each of the three dishes per condition using a 20× objective and phase-contrast optics. […]

Assay [6] deals with dorsal root ganglion (DRG) sensory neurons. Description: DRG neurite outgrowth assay. Type of assay: cell-based, mice. Conditions: NGF 50 ng/mL, DRG explants, 5 days. The text has this:
In the second step, we study the effect of HU-MCA-13 on ex-vivo sensory neuronal cultures obtained from dissociated dorsal root ganglia (DRG), a model in which the neurons tend to extend neurites in culture at a high rate, and all neurite outgrowths are axons, as confirmed by immune staining for cytoskeletal-specific proteins.[27] […] By contrast, NGF induced a strong, 3.5-fold increase in neurite outgrowth to a value of 700 μm (Figure 1 and Figure 3B) and a ratio of 8.5 between the area covered by neurites and that covered by the DRG ganglia (Figure 3C). Similarly, HU-MCA-13 induced a 2.5 fold increase in neurite outgrowth to a value of about 500 μm (Figure 1 and Figure 3B) and a ratio of 5.4 between the area covered by neurites and that covered by the DRG ganglia (Figure 3C). […] These experiments extend the neurotropic effect of MCA-13 observed with PC12 dopaminergic neuronal cultures to DRG sensory neurons.
To perform these experiments, 10 DRGs were excised under sterile conditions and transferred to Dulbecco’s Modified Eagle Medium (DMEM) containing 0.25% Type IV collagenase in at 37 °C for 45 min, followed by a 20 min incubation with 0.025% trypsin in DMEM, to digest the associated connective tissue surrounding the neurons. After plating the ganglia onto collagen (50 μg/mL)/laminin mixture (5 μg/mL)-coated tissue culture wells for 24 h, DRG neurons were cultured for additional 1–7 days in fresh Neurobasal A/B27 medium[27] containing either 50 ng/mL NGF (positive control), medium containing 1% DMSO (negative control) or 5 μM MCA-13. The living cultures were photographed and thereafter, the ganglia were immunostained for β tubulin III and again photographed using a fluorescent microscope. A researcher blinded to the experimental conditions performed image analysis, and the neurite outgrowth length (in micrometers) was measured.[50]

Sequence of Gamma-aminobutyric acid Receptor A (GABAA) (P14867 28-456): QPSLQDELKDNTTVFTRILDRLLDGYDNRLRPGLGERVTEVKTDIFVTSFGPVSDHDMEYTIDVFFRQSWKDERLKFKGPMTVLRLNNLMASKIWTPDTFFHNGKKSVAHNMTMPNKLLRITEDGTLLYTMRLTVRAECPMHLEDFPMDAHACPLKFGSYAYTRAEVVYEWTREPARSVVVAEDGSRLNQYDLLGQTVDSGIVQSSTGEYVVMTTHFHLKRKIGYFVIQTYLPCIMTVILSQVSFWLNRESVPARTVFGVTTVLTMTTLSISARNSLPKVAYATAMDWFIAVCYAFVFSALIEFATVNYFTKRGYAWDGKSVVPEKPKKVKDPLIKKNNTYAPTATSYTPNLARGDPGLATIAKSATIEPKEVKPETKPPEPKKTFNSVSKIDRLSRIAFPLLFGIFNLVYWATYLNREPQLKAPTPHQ
Sequence of Gamma-aminobutyric acid Receptor A (GABAA) (P47870 26-512): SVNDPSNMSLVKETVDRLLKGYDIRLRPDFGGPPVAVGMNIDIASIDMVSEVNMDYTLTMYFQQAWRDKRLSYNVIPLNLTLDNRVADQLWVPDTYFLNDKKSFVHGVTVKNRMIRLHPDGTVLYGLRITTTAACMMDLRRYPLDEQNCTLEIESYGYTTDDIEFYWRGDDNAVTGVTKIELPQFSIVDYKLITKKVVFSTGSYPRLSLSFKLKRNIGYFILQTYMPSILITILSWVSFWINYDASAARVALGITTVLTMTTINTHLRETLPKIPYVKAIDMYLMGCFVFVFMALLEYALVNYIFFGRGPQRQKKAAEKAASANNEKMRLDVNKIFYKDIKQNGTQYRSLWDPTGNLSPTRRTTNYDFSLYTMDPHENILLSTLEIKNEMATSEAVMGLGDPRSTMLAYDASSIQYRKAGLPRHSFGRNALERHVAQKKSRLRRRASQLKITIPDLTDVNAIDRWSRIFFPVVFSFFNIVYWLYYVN
Sequence of Gamma-aminobutyric acid Receptor A (GABAA) (P18507 40-475): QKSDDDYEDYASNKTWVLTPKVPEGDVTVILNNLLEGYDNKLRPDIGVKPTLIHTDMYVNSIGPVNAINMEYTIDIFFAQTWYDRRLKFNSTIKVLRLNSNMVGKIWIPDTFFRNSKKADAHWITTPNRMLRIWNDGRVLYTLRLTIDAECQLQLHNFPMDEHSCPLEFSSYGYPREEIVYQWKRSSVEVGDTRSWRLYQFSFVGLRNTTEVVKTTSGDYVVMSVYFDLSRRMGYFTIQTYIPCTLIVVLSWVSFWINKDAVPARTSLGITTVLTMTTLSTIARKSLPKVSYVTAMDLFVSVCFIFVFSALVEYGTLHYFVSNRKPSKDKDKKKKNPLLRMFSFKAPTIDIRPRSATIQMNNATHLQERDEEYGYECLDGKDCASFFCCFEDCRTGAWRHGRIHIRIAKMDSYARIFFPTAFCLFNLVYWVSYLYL
T1 sequence (P43681 29-627 limits assumed): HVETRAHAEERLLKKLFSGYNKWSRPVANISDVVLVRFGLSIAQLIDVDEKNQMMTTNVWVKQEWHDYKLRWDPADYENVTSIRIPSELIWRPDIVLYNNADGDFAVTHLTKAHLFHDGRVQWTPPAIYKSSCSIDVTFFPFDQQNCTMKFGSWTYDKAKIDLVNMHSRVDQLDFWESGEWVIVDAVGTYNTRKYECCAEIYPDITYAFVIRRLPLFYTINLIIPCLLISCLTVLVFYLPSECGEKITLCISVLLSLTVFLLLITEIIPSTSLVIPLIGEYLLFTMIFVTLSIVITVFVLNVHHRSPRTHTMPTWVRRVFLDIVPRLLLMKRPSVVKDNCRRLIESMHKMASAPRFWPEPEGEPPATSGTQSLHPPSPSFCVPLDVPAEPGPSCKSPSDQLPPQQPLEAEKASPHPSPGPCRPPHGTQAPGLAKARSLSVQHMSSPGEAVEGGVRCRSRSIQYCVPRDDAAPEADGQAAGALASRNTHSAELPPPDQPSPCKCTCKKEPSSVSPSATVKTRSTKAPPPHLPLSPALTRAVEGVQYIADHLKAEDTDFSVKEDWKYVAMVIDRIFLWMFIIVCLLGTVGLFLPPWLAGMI
T1 sequence (P17787 26-502): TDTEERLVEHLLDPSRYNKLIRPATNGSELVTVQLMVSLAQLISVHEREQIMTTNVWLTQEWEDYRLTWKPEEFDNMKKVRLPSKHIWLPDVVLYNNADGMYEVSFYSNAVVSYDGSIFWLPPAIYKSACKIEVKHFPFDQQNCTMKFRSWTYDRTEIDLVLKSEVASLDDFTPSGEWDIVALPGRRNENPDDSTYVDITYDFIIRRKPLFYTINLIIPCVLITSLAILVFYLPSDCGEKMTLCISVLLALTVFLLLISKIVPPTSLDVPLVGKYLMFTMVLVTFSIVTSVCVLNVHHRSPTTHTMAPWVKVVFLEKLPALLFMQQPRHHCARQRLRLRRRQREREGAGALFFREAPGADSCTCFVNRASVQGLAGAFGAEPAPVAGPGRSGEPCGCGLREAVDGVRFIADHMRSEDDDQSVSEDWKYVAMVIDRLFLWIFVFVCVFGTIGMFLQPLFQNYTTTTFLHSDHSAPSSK

As for “Dihydro-AY-erythroidine [reference compound]”, the IC50 in assay [1] was determined as 0.707 µM.

For the molecule Picrotoxin, in assay [2], the IC50 was 5.92 µM.

B1: NGF: Tissue culture grade mouse β-nerve growth factor, neurotrophin used as positive control (protein, UniProt P01139 122-241, looked up)
Beta-nerve growth factor: SSTHPVFHMGEFSVCDSVSVWVGDKTTATDIKGKEVTVLAEVNINNSVFRQYFFETKCRASNPVESGCRGIDSKHWNSYCTTTHTFVKALTTDEKQAAWRFIRIDTACVCVLSRKATRRG
modifications: Beta-nerve growth factor
notes: Tissue culture grade mouse β-nerve growth factor, neurotrophin used as positive control
B1: the “neurotropic effect in the presence of Trk A inhibitor K252a” value in assay [3] (250 nM K252a, 10 μM HU-MCA-13) is listed as “abolished”. Further, in assay [3] (2 days), the “neurite outgrowth, Df value” turned out to be 0.54. Also, in assay [3] (7 days), the “neurite outgrowth, Df value” stood at 0.4. For the same molecule, in assay [3] (low dose of NGF 1 ng/mL), the neurite outgrowth amounted to 10% and the “neurite outgrowth, Df” value is 0.05. The “production of PGE2” value in assay [4] is “significantly increased”. Moreover, the “neurite outgrowth total length” value in assay [5] is “about 800 μm”. Also, in assay [6], the neurite outgrowth length turned out to be 700 μm; the “ratio between the area covered by neurites and that covered by the DRG ganglia” value came out at 8.5. Further, the “fold increase in neurite outgrowth” value in assay [6] (versus control medium) turned out to be 3.5 fold.

Values taken from PMC7497641, “Neurotropic activity and safety of methylene-cycloalkylacetate (MCA) derivative 3-(3-allyl-2-methylenecyclohexyl) propanoic acid” (ACS Chemical Neuroscience, 2020).
